Reference: patent US7985587B2, “Methods of culturing dermal papilla cells” (The General Hospital Corporation, priority 2000, dated 2011)

B1: Wnt3a: Wnt protein supplied by chick embryo fibroblast feeder cells infected with RCASBP(A) retroviral vector encoding Wnt3a (protein, UniProt Q2LMP1 19-352, looked up)
Protein Wnt-3a: SYPIWWSLAIGHQYSSLGTQPILCGSIPGLVPKQLRFCRNYVEIMPSVAEGVKIGIQECQHQFRGRRWNCTTVNDSLAIFGPVLDKATRESAFVHAIASAGVAFAVTRSCAEGSATICGCDTRHKGSPGEGWKWGGCSEDVEFGSMVSREFADARENRPDARSAMNRHNNEAGRTSIIELMHLKCKCHGLSGSCEVKTCWWSQPDFRVIGDYLKDKYDSASEMVVEKHRESRGWVETLRPKYNFFKAPTEKDLVYYENSPNFCEPNPETGSFGTRDRICNVTSHGIDGCDLLCCGRGHNTRTEKRKEKCHCIFHWCCYVRCQECIRVYDVHTCK
B2: Wnt 4: Wnt protein supplied by chick embryo fibroblast feeder cells infected with RCASBP(A) retroviral vector encoding Wnt4 (protein, UniProt P49337 23-351, looked up)
Protein Wnt-4: SNWLYLAKLSSVGSISEEETCEKLKGLIQRQVQMCKRNLEVMDSVRRGAQLAIEECQYQFRNRRWNCSTLDTLPVFGKVVTQGTREAAFVYAISSAGVAFAVTRACSSGELDKCGCDRTVQGGSPQGFQWSGCSDNIAYGVAFSQSFVDVRERSKGASSNRALMNLHNNEAGRKAILNNMRVECKCHGVSGSCEFKTCWKAMPPFRKVGNVLKEKFDGATEVEQSEIGSTKVLVPKNSQFKPHTDEDLVYLDSSPDFCDHDLKNGVLGTSGRQCNKTSKAIDGCELMCCGRGFHTDEVEVVERCSCKFHWCCSVKCKPCHRVVEIHTCR

Experiments:
[1] = tested on: versican GFP transgenic mouse pelage DP cells; test: Flow cytometric analysis of GFP expression in DP cells co-cultured with feeder cells; type: cell-based; conditions: for GFP expression (GFP fluorescence) of DP cells: freshly isolated DP cells co-cultured with feeder cells expressing the protein, FACS analysis
Text: (§1) Fresh mouse pelage DP cells were obtained from versican GFP transgenic newborn skin by high-speed cell sorting (MoFLO) as described previously in Kishimoto et al., supra. Chick embryo fibroblasts (CEFs) were infected with RCASBP(A) retroviral vectors encoding chick Shh, as described in Riddle et al. (1993) Cell 75:1401-1416, Wnt3a, as described in Kengaku et al. (1998) Science 280:1274-1277, Wnt4, Wnt5a (Noramly and Morgan, in prep), or Wnt7a, as described in Riddle et al. (1995) Cell 83:631-640, or vector alone as described, as described in Morgan et al. in Methods in Cell Biology (ed. Bonner-Fraser) pp. 185-218 (Academic Press, San Diego, 1996). GFP positive mouse DP cells were added onto 30-50% confluent feeder cells to achieve a ratio of 1:3 (mouse:chick). For the flow cytometric analysis, cells were co-cultured in 24 well dishes for 48-96 hrs. For the grafting experiment co-cultured cells were passaged 2-3 times in 10 cm dishes to generate the 2×10^6 cells required for each graft.
Cells were trypsinized and resuspended in 0.5 ml PBS with 1% BSA. Flow cytometric analysis was performed by FACScan (Becton Dickinson). DP cells were labeled with mouse MHC class II monoclonal antibody and incubated with secondary IgG conjugated to PE. The PE negative avian cells fell below the lower gate in FIG. 3 and were excluded from the analysis of GFP expression.

[2] = tested on: versican GFP transgenic mouse pelage DP cells; test: RT-PCR analysis of gene expression in DP cells co-cultured with feeder cells; type: cell-based; conditions: freshly isolated DP cells co-cultured with feeder layers
Method: Total RNA was isolated and RT PCR performed as described in Kishimoto et al. (1999) Proc. Natl Acad. Sci. USA 96:7336-7341, using an annealing temperature of 58° C. The primers employed are listed below. With the exception of Wnts 4, 5 and 7, the primers were designed to distinguish between mouse and chicken orthologues and the lack of cross reaction to chick sequences was confirmed on cDNA from feeder cells alone.
as §1, with “For the grafting experiment co-cultured cells were passaged 2-3 times in 10 cm dishes to generate the 2×10^6 cells required for each graft.” left out

[3] = tested on: hair inductive activity of DP cells; test: Skin reconstitution assay: co-cultured DP cells plus keratinocytes grafted on nude mouse hosts; type: in vivo
Text: as §1
The reconstitution assay was performed as described in Kishimoto et al., supra. Primary keratinocytes were prepared from 2 newborn pups per graft and combined with 2×10^6 DP cells in the graft chamber. Hair growth was monitored two weeks after grafting and weekly thereafter.

[4] = DP cells maintained in culture until GFP expression and hair inductive activity were lost

Molecule	reactivation of GFP expression in DP cells that lost it in culture [1, 4]	GFP expression (GFP fluorescence) of DP cells [1]	GFP RNA levels in DP cells [2]	reactivation of hair inductive activity in DP cells that lost it in culture [3, 4]	hair growth / hair inductive activity of co-cultured DP cells ([3]; reconstituted skin on nude mouse host, compared to cells co-cultured with control feeders or Shh expression cells)	hair in graft of treated DP cells ([3]; three weeks after grafting to nude mouse, DP cells co-cultured with feeder cells, combined with keratinocytes)
B1	cannot reactivate	maintenance of GFP fluorescence in the majority of the DP cells	maintained	cannot reactivate	dramatic increase in hair growth	formed a dense patch of hair in the graft
B2	–	some maintenance of GFP expression but were less potent than either Wnt3a or 7a	–	–	–	–
